Source: article PMC4392246, “Structure of a BAG6 (Bcl-2-associated Athanogene 6)-Ubl4a (Ubiquitin-like Protein 4a) Complex Reveals a Novel Binding Interface That Functions in Tail-anchored Protein Biogenesis*” (The Journal of Biological Chemistry, 2015)

Tests used:
[1] = target: T1, full-length Ubl4a (residues 1–157), recombinant (Homo sapiens, UniProt P11441 1-157); assay: SPR; BAGS domain (residues 1048-1123) immobilised on a CM5 chip by amine coupling; wild-type and mutant Ubl4a as analytes; 298 K; HBS-P (10 mM HEPES, 150 mM NaCl, 0.05% Surfactant P20, pH 7.2); 30 μl/min; two-state reaction model, overall dissociation constant; details: both partners purified
T1 construct: Ubl4a, Homo sapiens, residues 1-157; also called Ubl4a(1–157); full-length Ubl4a wild type; source: recombinant
T1 sequence (looked up): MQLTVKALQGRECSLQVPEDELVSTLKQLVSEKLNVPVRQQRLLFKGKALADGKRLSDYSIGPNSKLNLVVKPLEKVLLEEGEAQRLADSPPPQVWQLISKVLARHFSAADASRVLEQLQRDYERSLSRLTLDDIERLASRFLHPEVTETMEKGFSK

[2] = target: T2, full-length Ubl4a H106E mutant, recombinant (Homo sapiens, UniProt P11441 1-157, H106E); assay: as above; details: both partners purified
T2 construct: Ubl4a, Homo sapiens, 157 amino acids, with H106E; also called H106E Ubl4a; source: recombinant
T2 sequence (looked up): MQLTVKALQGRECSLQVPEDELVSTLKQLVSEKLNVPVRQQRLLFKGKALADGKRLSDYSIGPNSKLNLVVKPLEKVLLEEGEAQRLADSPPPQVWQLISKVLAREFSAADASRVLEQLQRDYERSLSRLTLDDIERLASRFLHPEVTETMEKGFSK

Kd [1]: 2.2 ± 0.5 nM | Kd [2]: 1600 ± 80 nM
B1: BAG6 BAGS domain (residues 1048–1123) (domain or fragment, human, UniProt P46379-2 1048-1123, looked up)
chain: MQGEGPQLLLSEAVSRAAKAAGARPLTSPESLSRDLEAPEVQESYRQQLRSDIQKRLQEDPNYSPQRFPNAQRAFA
notes: BAG6, C-terminal BAGS domain, residues 1048-1123; printed length of BAG6 1,126 residues; Removal of GST is told for the crystallised complex; also called BAG6(1048–1123)
